Experimental data taken from patent US20120321641A1 (TORAY INDUSTRIES, published 2012).

T1: human CAPRIN-1 protein on human cancer cells and in human cancer tissues (human, UniProt Q14444 2-709)
T1 construct: whole, on cells; Endogenous protein of the cell lines and tissue arrays; also called CAPRIN-1 protein expressed on the cell membrane surfaces of human cancer cell lines
T1 sequence (looked up): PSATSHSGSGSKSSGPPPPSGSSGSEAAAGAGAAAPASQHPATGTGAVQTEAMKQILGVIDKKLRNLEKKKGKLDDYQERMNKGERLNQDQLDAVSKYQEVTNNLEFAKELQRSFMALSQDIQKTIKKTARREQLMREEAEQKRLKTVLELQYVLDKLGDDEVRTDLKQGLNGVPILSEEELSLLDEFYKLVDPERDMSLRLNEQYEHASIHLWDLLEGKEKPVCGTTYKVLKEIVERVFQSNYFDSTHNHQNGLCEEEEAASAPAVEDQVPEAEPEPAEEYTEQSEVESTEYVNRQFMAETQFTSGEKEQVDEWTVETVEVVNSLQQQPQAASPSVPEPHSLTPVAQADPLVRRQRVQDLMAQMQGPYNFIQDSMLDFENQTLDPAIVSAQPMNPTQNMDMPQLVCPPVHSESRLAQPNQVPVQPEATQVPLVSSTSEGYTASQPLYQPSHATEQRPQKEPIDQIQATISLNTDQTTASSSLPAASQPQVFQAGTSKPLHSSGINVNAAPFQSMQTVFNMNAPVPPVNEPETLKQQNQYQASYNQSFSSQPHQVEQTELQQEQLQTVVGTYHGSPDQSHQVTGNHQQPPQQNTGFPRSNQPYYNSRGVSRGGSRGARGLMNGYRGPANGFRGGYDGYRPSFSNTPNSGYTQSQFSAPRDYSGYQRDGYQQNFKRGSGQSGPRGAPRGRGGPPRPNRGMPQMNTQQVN

T2: recombinant human CAPRIN-1 protein having the amino acid sequence represented by SEQ ID NO: 2 (human, UniProt Q14444 2-709)
T2 construct: The His-tag was cleaved off with enterokinase; also called antigen protein (human CAPRIN-1)
T2 sequence: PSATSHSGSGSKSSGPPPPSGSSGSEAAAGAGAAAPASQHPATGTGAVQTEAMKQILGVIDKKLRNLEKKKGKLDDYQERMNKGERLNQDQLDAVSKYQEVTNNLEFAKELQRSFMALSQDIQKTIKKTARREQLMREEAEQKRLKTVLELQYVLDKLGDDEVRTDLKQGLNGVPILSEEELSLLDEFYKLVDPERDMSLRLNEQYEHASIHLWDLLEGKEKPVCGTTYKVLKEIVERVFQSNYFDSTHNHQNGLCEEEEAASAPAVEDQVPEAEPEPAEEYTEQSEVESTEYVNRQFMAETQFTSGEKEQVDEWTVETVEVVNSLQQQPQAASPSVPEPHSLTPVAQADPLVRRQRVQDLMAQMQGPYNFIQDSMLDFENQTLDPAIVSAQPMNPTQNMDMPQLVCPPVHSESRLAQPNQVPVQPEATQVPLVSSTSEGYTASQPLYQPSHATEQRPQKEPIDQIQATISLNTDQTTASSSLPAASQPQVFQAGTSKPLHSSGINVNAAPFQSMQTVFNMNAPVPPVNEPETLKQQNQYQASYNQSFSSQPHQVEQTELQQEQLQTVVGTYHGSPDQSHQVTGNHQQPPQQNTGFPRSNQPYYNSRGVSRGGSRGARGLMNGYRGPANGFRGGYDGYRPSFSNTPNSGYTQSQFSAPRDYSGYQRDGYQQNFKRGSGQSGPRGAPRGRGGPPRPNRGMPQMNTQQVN


What was measured:
[1] = target: T1, human CAPRIN-1 protein on human cancer …; assay: immunohistochemical staining of paraffin-embedded human cancer tissue arrays
Protocol: After 3 hours of treatment of the human breast cancer tissue array at 60° C., the array was placed in a staining bottle filled with xylene, followed by xylene replacement being repeated three times every 5 minutes. Next, a similar procedure was performed with ethanol and PBS-T instead of xylene. The human breast cancer tissue array was placed in a staining bottle filled with 10 mM citrate buffer (pH 6.0) containing 0.05% Tween20. After 5 minutes of treatment at 125° C., the array was left to stand at room temperature for 40 minutes or more. Excess water around the sections was removed with Kimwipes, the sections were circled with a DAKOPEN, and Peroxidase Block (DAKO) was added dropwise in appropriate amounts. After left to stand at room temperature for 5 minutes, the array was placed in a staining bottle filled with PBS-T, followed by PBS-T replacement being repeated three times every 5 minutes. As a blocking solution, a PBS-T solution containing 10% FBS was placed on the array, and then the array was left to stand in a moist chamber at room temperature for 1 hour. Next, a solution of the monoclonal antibody #1 of 10 μg/ml adjusted with a PBS-T solution containing 5% FBS, which reacts with cancer cell surfaces and had been prepared in Example 4, was placed on, and the array was left to stand overnight in a moist chamber at 4° C. […]

[2] = target: T2, recombinant human CAPRIN-1 protein …; assay: ELISA; CAPRIN-1 protein coated at 1 ug/ml, hybridoma culture supernatant, HRP anti-chicken IgY
Protocol: The thus selected hybridomas were added to a 96-well plate at 0.5 cells per well and then cultured. After 1 week, hybridomas that had formed single colonies in wells were observed. These cells in the wells were further cultured, and then hybridomas were selected using as a marker the binding affinity of antibodies produced by the cloned hybridomas to the CAPRIN-1 protein. The CAPRIN-1 protein solution (1 μg/ml) prepared in Example 2 was added to a 96-well plate at 100 μl per well, and then left to stand at 4° C. for 18 hours. Each well was washed with PBS-T three times, 400 μl of a 0.5% BSA solution was added per well, and then the resultant was left to stand at room temperature for 3 hours. The solution was removed, and then the wells were washed three times with 400 μl of PBS-T per well. 100 μl of each culture supernatant of the above-obtained hybridomas was added per well, and then the plate was left to stand at room temperature for 2 hours. After washing each well three times with PBS-T, 100 μl of an HRP-labeled anti-chicken IgY antibody (SIGMA) diluted 5000-fold with PBS was added per well and then left to stand at room temperature for 1 hour. […] After color development, 100 μl of 1N sulfuric acid was added per well to stop the reaction and then absorbances at 450 nm and 595 nm were measured using an absorption spectrometer. […]

[3] = target: T1, human CAPRIN-1 protein on human cancer …; assay: flow cytometry on MDA-MB-231V human breast cancer cells, hybridoma culture supernatant, FITC anti-chicken IgG
Protocol: Next, of those monoclonal antibodies, antibodies reactive with the cell surfaces of breast cancer cells expressing CAPRIN-1 were selected. Specifically, 5×10⁵ cells of the human breast cancer cell line MDA-MB-231V were subjected to centrifugation in a 1.5-ml microcentrifuge tube, and 100 μl of the culture supernatant of each of the above hybridomas was added to the tube, and then the tube was left to stand on ice for 1 hour. After washing with PBS, an FITC-labeled goat anti-chicken IgG (H+L) antibody (SouthernBiotech) diluted 30-fold with PBS containing 0.1% FBS was added, and then the resultant was left to stand on ice for 1 hour. After washing with PBS, fluorescence intensity was measured using a FACS caliber (Becton, Dickinson and Company). Meanwhile, procedures similar to the above were performed for medium for culturing hybridomas, so that a control sample was obtained.

| binding result [1] | binding result [2] | binding result [3] | Binder |
| --- | --- | --- | --- |
| binds | – | – | monoclonal antibody #1 prepared in Example 4 (antibody, V domains shown, also called anti-CAPRIN-1 monoclonal antibody) VH: AVTLDESGGGLQTPGGGLSLVCKASGFTFSSFDMGWVRQAPGKGLEFVAQINDAGSRTWYATAVKGRATISRDNGQTTVRLQLNNLRAEDTGTYYCTRGSGYVGAGAIDAWGHGTEVIVS VL: AALTQPSSVSANPGETVKITCSGGSGYYGWYQQQKSPGSAPVTVIYQNDKRPSDIPSRFSGSGSGSTNTLTITGVQAEDEAVYFCGRYDSTDSGIFGAGTTLTVL |
| – | binds | binds | chicken monoclonal antibody #1 (antibody, V domains shown, Chicken hybridoma antibody tested as culture supernatant and detected with anti-chicken IgY/IgG secondary antibodies; the chicken constant regions are not; also called anti-CAPRIN-1 monoclonal antibody #1) VH: AVTLDESGGGLQTPGGGLSLVCKASGFTFSSFDMGWVRQAPGKGLEFVAQINDAGSRTWYATAVKGRATISRDNGQTTVRLQLNNLRAEDTGTYYCTRGSGYVGAGAIDAWGHGTEVIVS VL: AALTQPSSVSANPGETVKITCSGGSGYYGWYQQQKSPGSAPVTVIYQNDKRPSDIPSRFSGSGSGSTNTLTITGVQAEDEAVYFCGRYDSTDSGIFGAGTTLTVL |
